Here are results for 15 molecules from article PMC11555231, “A cyclic peptide toolkit reveals mechanistic principles of peptidylarginine deiminase IV regulation” (Nature Communications, 2024).

Test [1] deals with T1, bio-His-PADI4 with the active site covalently blocked by Cl-amidine (human, UniProt Q9UM07 1-663, biotin on the N-terminal Avi-Tag (BirA); active site covalently blocked with Cl-amidine (residue not stated)).
T1 construct: human peptidylarginine deiminase IV (PADI4), residues 1-663; Same protein as m1; also called 10 mM CaCl2 + Cl-amidine; source: E. coli BL21-DE3 co-expressing biotin ligase (BirA), purified (Ni-NTA, S200 SEC); treated with Cl-amidine; not shown: Avi-Tag (biotinylated), N-terminal, kept; His6, N-terminal, kept
The test can be described thus: SPR; as a1 with 10 mM CaCl2 and the PADI4 active site blocked with Cl-amidine; Bio-His-PADI4 captured, peptide as analyte; 25 °C; 1:1 binding model. The note with it: both partners purified.

The target of test [2] is T2, N-terminally biotinylated recombinant human PADI4 (bio-His-PADI4) (human, UniProt Q9UM07 1-663, biotin on the N-terminal Avi-Tag (BirA)).
T2 construct: human peptidylarginine deiminase IV (PADI4), residues 1-663; (vector p28BIOH-LIC, Addgene plasmid 62352); also called Bio-hPADI4 wt; PADI4_WT; source: E. coli BL21-DE3 co-expressing biotin ligase (BirA), purified (Ni-NTA, S200 SEC); not shown: Avi-Tag (biotinylated), N-terminal, kept; His6, N-terminal, kept
The test can be described thus: SPR; as a1 but 0 mM CaCl2 (calcium-free running buffer); Bio-His-PADI4 captured, peptide as analyte; 25 °C; 1:1 binding model. The note with it: both partners purified.

Test [3] addresses T2, N-terminally biotinylated recombinant …. The test can be described thus: SPR; single cycle kinetics, Biacore T200 or S200; Bio-His-PADI4 captured on a Biotin CAPture chip (~2000 RU), peptide as analyte; 50 mM HEPES pH 7.5, 150 mM NaCl, 2 mM DTT, 0.05% Tween-20, 0.1% DMSO, 10 mM CaCl2; 25 °C; 1:1 binding model. The note with it: both partners purified.
For test [4], the target named is His-tagged recombinant human PADI4 (His-PADI4) (human, UniProt Q9UM07 1-663). Description: cell-based or functional assay.
The target in test [5] is human PADI4 stably expressed in E14 mouse embryonic stem cells (hPADI4-stable) (human, UniProt Q9UM07 1-663). Description: cell-based or functional assay.
Another test addresses T3, PADI4_N373A (human, UniProt Q9UM07 1-663, N373A).
T3 construct: human PADI4, residues 1-663, single substitution; source: E. coli BL21-DE3, purified (Ni-NTA, S200 SEC), as told for the wild type
Description: SPR; single cycle kinetics; biotinylated PADI4 (wild type or single-residue variant) captured on a Biotin CAPture chip, peptide or peptide analogue as analyte; 50 mM HEPES pH 7.5, 150 mM NaCl, 2 mM DTT, 0.05% Tween-20, 0.1% DMSO; 25 °C; CaCl2 concentration not told for these runs. The note with it: both partners purified.

The target in test [6] is T4, PADI4_C166F (human, UniProt Q9UM07 1-663, C166F).
T4 construct: source: E. coli BL21-DE3, purified (Ni-NTA, S200 SEC), as told for the wild type
Described as above. The note with it: both partners purified.

Test [7] addresses T5, PADI4_R394A (human, UniProt Q9UM07 1-663, R394A).
T5 construct: human PADI4, residues 1-663, single substitution; source: E. coli BL21-DE3, purified (Ni-NTA, S200 SEC), as told for the wild type
The test is described as above. The note with it: both partners purified.

Test [8] addresses T6, PADI4_D168A (human, UniProt Q9UM07 1-663, D168A).
T6 construct: human PADI4, residues 1-663, single substitution; source: E. coli BL21-DE3, purified (Ni-NTA, S200 SEC), as told for the wild type
Described as above. The note with it: both partners purified.

Test [9] addresses T7, PADI4_D165A (human, UniProt Q9UM07 1-663, D165A).
T7 construct: human PADI4, residues 1-663, single substitution made by mutagenesis of the plasmid; source: E. coli BL21-DE3, purified (Ni-NTA, S200 SEC), as told for the wild type
The test is described as above. Particulars: both partners purified.

Test [10] has as its target T8, PADI4_E167A (human, UniProt Q9UM07 1-663, E167A).
T8 construct: human PADI4, residues 1-663, single substitution; source: E. coli BL21-DE3, purified (Ni-NTA, S200 SEC), as told for the wild type
Described as above. Particulars: both partners purified.

Test [11] deals with T9, N-terminally biotinylated human PADI4 (bio-His-PADI4) (human, UniProt Q9UM07 1-663, G55S (read from the plasmid's DNA at D1:p46, codon AGC)); not stated by the …, biotin on the Avi-Tag (BirA)).
T9 construct: human PADI4, residues 1-663, cloned into p28BIOH-LIC; The COLDER assays used His-PADI4 from the same plasmid made without BirA (not biotinylated); also called Bio-hPADI4 wt; Avi-His-PADI4; source: E. coli BL21-DE3 co-expressing biotin ligase (BirA), purified (Ni-NTA, S200 size exclusion); not shown: Avi-Tag, N-terminal, kept; His6, N-terminal, kept
The test can be described thus: SPR; single cycle kinetics; Bio-His-PADI4 captured on a Biotin CAPture chip, peptide as analyte; 25 °C; 50 mM HEPES pH 7.5, 150 mM NaCl, 2 mM DTT, 0.05% Tween-20, 0.1% DMSO; CaCl2 concentration not stated for these data; 1:1 binding model. The note with it: both partners purified.

Test [12] has as its target T9, N-terminally biotinylated human PADI4 …. Description: SPR; single cycle kinetics, Biacore T200 or S200; Bio-His-PADI4 captured on a Biotin CAPture chip (~2000 RU), peptide as analyte; 25 °C; 50 mM HEPES pH 7.5, 150 mM NaCl, 2 mM DTT, 0.05% Tween-20, 0.1% DMSO, 10 mM Ca2+; 1:1 binding model. Particulars: both partners purified.
The target is the same in test [13]. Description: SPR; as a1 with 10 mM Ca2+ and 200 µM Cl-amidine (PADI4 active site covalently blocked with Cl-amidine). The note with it: both partners purified.
Test [14] has as its target T4, PADI4_C166F. The test can be described thus: cell-based or functional assay.
For test [15], the target named is T5, PADI4_R394A. Description: cell-based or functional assay.
Test [16] concerns the target T6, PADI4_D168A. Description: cell-based or functional assay.
For test [17], the target named is T7, PADI4_D165A. Description: cell-based or functional assay.
Test [18] concerns the target T8, PADI4_E167A. Description: cell-based or functional assay.

Bridge positions count the residues as written; N and C are the ends. Square brackets hold non-standard residues; d marks the D form.

T1 sequence (Q9UM07 whole entry, the tested form may be a part): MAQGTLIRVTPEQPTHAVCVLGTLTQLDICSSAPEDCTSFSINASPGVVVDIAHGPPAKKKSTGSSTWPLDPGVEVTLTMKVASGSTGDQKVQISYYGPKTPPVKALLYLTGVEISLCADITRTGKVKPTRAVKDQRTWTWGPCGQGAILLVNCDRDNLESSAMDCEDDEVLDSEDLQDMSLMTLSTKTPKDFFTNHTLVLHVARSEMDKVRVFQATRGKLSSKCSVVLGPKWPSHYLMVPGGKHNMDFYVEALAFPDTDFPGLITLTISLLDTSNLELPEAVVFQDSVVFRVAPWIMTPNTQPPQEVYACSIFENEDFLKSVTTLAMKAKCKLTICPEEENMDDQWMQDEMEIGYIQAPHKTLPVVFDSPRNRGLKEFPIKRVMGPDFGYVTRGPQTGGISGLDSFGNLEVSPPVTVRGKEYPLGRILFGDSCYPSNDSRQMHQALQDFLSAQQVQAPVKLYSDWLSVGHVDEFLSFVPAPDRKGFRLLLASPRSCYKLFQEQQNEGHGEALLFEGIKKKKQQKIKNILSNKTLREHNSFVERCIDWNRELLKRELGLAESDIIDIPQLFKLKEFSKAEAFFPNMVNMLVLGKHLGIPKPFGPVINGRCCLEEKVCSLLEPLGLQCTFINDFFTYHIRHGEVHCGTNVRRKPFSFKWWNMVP
T2 sequence (Q9UM07 whole entry, the tested form may be a part): as above
T5 sequence (Q9UM07 whole entry R394A, the tested form may be a part): as the sequence (Q9UM07 whole entry, the tested form may be a part) above, with R394A counted along it
T8 sequence (Q9UM07 whole entry E167A, the tested form may be a part): as the sequence (Q9UM07 whole entry, the tested form may be a part) above, with E167A counted along it
T9 sequence (Q9UM07 whole entry G55S/V82A/G112A, the tested form may be a part): as the sequence (Q9UM07 whole entry, the tested form may be a part) above, with G55S, V82A, G112A counted along it
T7 sequence (Q9UM07 whole entry D165A, the tested form may be a part): as the sequence (Q9UM07 whole entry, the tested form may be a part) above, with D165A counted along it
T6 sequence (Q9UM07 whole entry D168A, the tested form may be a part): as the sequence (Q9UM07 whole entry, the tested form may be a part) above, with D168A counted along it
T4 sequence (Q9UM07 whole entry C166F): as the sequence (Q9UM07 whole entry, the tested form may be a part) above, with C166F counted along it
Chain of His-tagged recombinant human PADI4 (His-PADI4) (Q9UM07 whole entry): as the sequence (Q9UM07 whole entry, the tested form may be a part) above
T3 sequence (Q9UM07 whole entry N373A, the tested form may be a part): as the sequence (Q9UM07 whole entry, the tested form may be a part) above, with N373A counted along it
Chain of human PADI4 stably expressed in E14 mouse embryonic stem cells (hPADI4-stable) (Q9UM07 whole entry): as the sequence (Q9UM07 whole entry, the tested form may be a part) above

B1: PADI4_10 (peptide)
peptide: YPWEISVWLLYCG
modifications: not fully specified; D-tyrosine at position 1; cyclised via a thioether bond between the N-terminus (chloroacetylated) and the cysteine side chain (Cys12, from the letters); C-terminal amide
notes: cyclic peptide from RaPID selection 2 (0 mM CaCl2); source: synthetic peptide (Fmoc solid-phase synthesis, HPLC purified)
On to B1, for which the Kd in [1], in [2] and in test [3] was > 2000 nM each time.

B2: PADI4_12 (peptide)
peptide: YEPCRFREILDL
modifications: not fully specified; L-tyrosine at position 1; cyclised via a thioether bond between the N-terminus (chloroacetylated) and the cysteine side chain (Cys4, from the letters); C-terminal amide
As to B2, the “fold reduction of the calcium requirement K50(Ca2+) of PADI4 activity by 30 µM peptide (COLDER assay)” value in test [4] was 4 fold.

B3: PADI4_3 (peptide)
peptide: {CH2CO}-[dY]RDHHYRHPKYCG-NH2
modifications: thioether N-12
notes: cyclic peptide from RaPID selection 1 (10 mM CaCl2); source: synthetic peptide (Fmoc solid-phase synthesis, HPLC purified)
Consider B3, for which the “EC50 of inhibition of H3 citrullination in hPADI4-stable mES cells stimulated with KSR/2i for 3 h (high-content imaging)” value in [5] came to 200 nM. Besides, the Kd in the test with PADI4_N373A came to 83 nM; in the test with PADI4_C166F [6], 3 nM; with PADI4_R394A [7], 8 nM; in the test with PADI4_D168A [8], 20 nM; with PADI4_D165A [9], 61 nM; with PADI4_E167A [10], 7 nM.

B4: PADI4_3i (peptide)
chain: YDRHHYRHPKYCG
modifications: not fully specified; D-tyrosine at position 1; acetylated N-terminus joined by a thioether bond to the side chain of Cys12 (cyclic); C-terminal amide
Consider B4, for which the equilibrium dissociation constant (Kd) in [11] is > 10000 nM.

B5: PADI4_8 (peptide)
peptide: YTLWTVLVVICCG
modifications: not fully specified; D-tyrosine at position 1; cyclised via a thioether bond between the N-terminus (chloroacetylated) and the cysteine side chain (the cysteine marked C(S-), Cys11 from the letters); C-terminal amide
notes: as for B1
Turning to B5, the Kd in [1], in [2] and in [3] was > 2000 nM in each case.

B6: PADI4_11 (peptide)
peptide: YESCRYRQVLQL
modifications: not fully specified; acetylated N-terminus (L-tyrosine 1) joined by a thioether bond to the side chain of Cys4 (cyclic); C-terminal amide
notes: cyclic peptide from RaPID selection 3; also called PAD4_11; source: synthetic peptide (Fmoc solid-phase synthesis, HPLC-purified)
Take B6: in test [12], the koff is 0.1 s⁻¹ and the kon came out at 200000 M⁻¹ s⁻¹. Moreover, in test [13], the koff came out at 0.1 s⁻¹ and the association rate constant (kon) is 300000 M⁻¹ s⁻¹.

B7: PADI4_4 (peptide)
peptide: YHRLIVVIYVCG
modifications: not fully specified; D-tyrosine at position 1; cyclised via a thioether bond between the N-terminus (chloroacetylated) and the cysteine side chain (Cys11, from the letters); C-terminal amide
notes: as for B3
Turning to B7, the Kd in [1], in test [2] and in [3] was > 2000 nM each time.

B8: PADI4_6 (peptide)
peptide: YLVLTIRLVLCG
modifications: not fully specified; D-tyrosine at position 1; cyclised via a thioether bond between the N-terminus (chloroacetylated) and the cysteine side chain (Cys11, from the letters); C-terminal amide
notes: as for B3
As to B8, the Kd in [1], in test [2] and in [3] was > 2000 nM throughout.

B9: PADI4_12 (peptide)
peptide: YEPCRFREILDL
modifications: not fully specified; acetylated N-terminus (L-tyrosine 1) joined by a thioether bond to the side chain of Cys4 (cyclic); C-terminal amide
notes: cyclic peptide from RaPID selection 3; also called PAD4_12; source: synthetic peptide (Fmoc solid-phase synthesis, HPLC-purified)
Consider B9, for which, in test [12], the Kd stood at 679 nM, the koff stood at 0.1 s⁻¹ and the kon turned out to be 200000 M⁻¹ s⁻¹. In test [13], this molecule displayed a koff of 0.2 s⁻¹ and a kon of 300000 M⁻¹ s⁻¹.

B10: PADI4_1 (peptide)
peptide: YFYRIGFWYPNYQCG
modifications: not fully specified; D-tyrosine at position 1; cyclised via a thioether bond between the N-terminus (chloroacetylated) and the cysteine side chain (Cys14, from the letters); C-terminal amide
notes: cyclic peptide from RaPID selection 1 (10 mM CaCl2); also called PAD4_1; source: synthetic peptide (Fmoc solid-phase synthesis, HPLC purified)
Regarding B10, the Kd in [1] came to 727 nM; in test [2], 105 nM; in test [3], 205 nM.

B11: PADI4_7 (peptide)
peptide: YYPKGSWGYKLFCG
modifications: not fully specified; D-tyrosine at position 1; cyclised via a thioether bond between the N-terminus (chloroacetylated) and the cysteine side chain (Cys13, from the letters); C-terminal amide
notes: cyclic peptide from RaPID selection 2 (0 mM CaCl2); also called PAD4_7; source: synthetic peptide (Fmoc solid-phase synthesis, HPLC purified)
As to B11, the Kd in test [1] was found to be 36 nM; in [2] it was 8 nM; in test [3], 39 nM.

B12: PADI4_11 (peptide)
peptide: {CH2CO}-YESCRYRQVLQL-NH2
modifications: thioether N-4
notes: cyclic (lariat) peptide from RaPID selection 3 (10 mM CaCl2 + Cl-amidine); also called PAD4_11; source: synthetic peptide (Fmoc solid-phase synthesis, HPLC purified)
As for B12, the “ratio of K50(Ca2+) with DMSO to K50(Ca2+) with 30 µM PADI4_11 (COLDER assay)” value is 0.9 fold with PADI4_C166F [14]; 1.1 fold in the test with PADI4_R394A [15]; 2.9 fold in the test with PADI4_D168A [16]; 1.5 fold with PADI4_D165A [17]; 2.7 fold in the test with PADI4_E167A [18]. In addition, the Kd with PADI4_N373A was > 10000 nM; with PADI4_C166F [6] it was > 10000 nM; with PADI4_R394A [7], > 10000 nM; in the test with PADI4_D168A [8], 4000 nM; with PADI4_D165A [9], 3000 nM; in the test with PADI4_E167A [10], 700 nM.

B13: PADI4_2 (peptide)
peptide: YRDHRSPFDGYCG
modifications: not fully specified; D-tyrosine at position 1; cyclised via a thioether bond between the N-terminus (chloroacetylated) and the cysteine side chain (Cys12, from the letters); C-terminal amide
B13: the “IC50 of inhibition of PADI4 activity (COLDER assay, substrate BAEE, 10 mM CaCl2, 50 nM PADI4)” value in test [4] amounted to 209 nM.

B14: PADI4_5 (peptide)
peptide: YATPWLIVVLCG
modifications: not fully specified; D-tyrosine at position 1; cyclised via a thioether bond between the N-terminus (chloroacetylated) and the cysteine side chain (Cys11, from the letters); C-terminal amide
notes: as for B3
Turning to B14, the Kd in [1], in test [2] and in test [3] was > 2000 nM in each case.

B15: PADI4_9 (peptide)
peptide: YAQWYIWVLLCG
modifications: not fully specified; D-tyrosine at position 1; cyclised via a thioether bond between the N-terminus (chloroacetylated) and the cysteine side chain (Cys11, from the letters); C-terminal amide
notes: as for B1
As to B15, the dissociation constant Kd in test [1], in [2] and in test [3] was > 2000 nM each time.
